We go through four substances from article PMC11506546.

Test [1] deals with rabbit skeletal-muscle F-actin (rabbit) (UniProt P68135). Description: co-sedimentation; 0.2-3.5 µM tropomyosin with 3 µM F-actin in T buffer (150 mM NaCl, 10 mM Tris-HCl pH 7.5, 2 mM MgCl2), 50 µL, 1 h at room temperature; 670,000 x g, 20 °C, 30 min; SDS-PAGE densitometry; Hill equation fit; apparent Kd.
The target of test [2] is α-actin filament (muscle actin, polymerized from G-actin) (UniProt P68135). Description: TIRF microscopy of tropomyosin-decorated single actin filaments; control experiments: the same Tpm isoform labeled with AF488 and with AF568 (0.015 µM of each) mixed with 1 µM G-actin in D buffer, polymerized with 50 mM NaCl for 5-10 min, 10% PEG 300; decorated filaments captured on PLL-PEG/BSA coverslips in microfluidic channels, washed with TIR50 buffer.

The target of test [3] is β-actin filament (cytoskeletal actin, polymerized from G-actin) (UniProt P60709). The test is described as above.

Chain of Tpm1.6 (Tm2), unlabeled recombinant human cytoskeletal tropomyosin (natural protein; modification not given) (chain, as listed by the source): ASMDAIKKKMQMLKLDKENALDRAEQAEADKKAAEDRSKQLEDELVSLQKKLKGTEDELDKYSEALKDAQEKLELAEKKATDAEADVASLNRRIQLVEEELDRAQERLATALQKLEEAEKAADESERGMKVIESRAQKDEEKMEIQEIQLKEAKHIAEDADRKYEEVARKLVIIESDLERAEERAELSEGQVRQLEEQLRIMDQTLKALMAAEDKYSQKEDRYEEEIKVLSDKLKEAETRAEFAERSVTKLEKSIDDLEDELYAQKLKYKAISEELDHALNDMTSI

On to “Tpm1.1 (αTm), unlabeled recombinant rat skeletal/cardiac muscle tropomyosin (natural protein)”, for which, in test [1], the Kd worked out at 640 nM.
As for “Tpm1.1 AF488 (Tpm1.1 labeled at Cys-190 with Alexa Fluor 488 C5 maleimide) (natural protein)”, the Kd in test [1] worked out at 170 nM.
For “Tpm1.1 AF568 (Tpm1.1 labeled at Cys-190 with Alexa Fluor 568 C5 maleimide) (natural protein)”, in test [1], the Kd worked out at 240 nM. The ratio of Tpm in Ch1 (red, AF568)/Ch2 (green, AF488) on the filament, median in test [2] and in test [3] was 0.9 each time.
For the substance “Tpm1.6 (Tm2), unlabeled recombinant human cytoskeletal tropomyosin (natural protein; modification not given)”, in test [1], the Kd was found to be 440 nM.
